Assay results: US20160015831A1 (BIOALLIANCE C V, published 2016)
Values belong to the binder of their own block, whether it stands above or below them.

Legend:
human CD22 [1] = biological target: T1, human CD22 (human, UniProt P20273 20-847); assay: flow cytometry, Daudi cells, unconjugated Ab 3.3 µg/mL
T1 construct: Endogenous CD22 on human cell lines Daudi, Raji, Ramos, RL, REH and NALM-6; no signal peptide limits are stated; also called antigen CD22
Procedure: (§1) 6×10⁴˜1×10⁵ cells were seeded per well in a v-bottomed 96-well plate and incubated with 100 μl of the unconjugated Abs or the ADCs at titrated concentrations or isotype control antibody human IgG at 10 μg/mL. After 30-60 minutes of incubation at 4° C., cells were washed once with 200 μl FACS buffer (lx PBS containing 1% FBS), stained with 100 μl of 1 μg/ml goat F(ab′)2-anti-human IgG (H+L)-RPE (Southern Biotech, Cat. No. 2043-09) in FACS buffer and then incubated at 4° C. for 30˜60 min Cells were washed once with FACS buffer and analyzed by flow cytometer (BD LSR, BD Life Sciences).
The binding ability of hLL2-Cys variants with or without drug conjugation was evaluated in Daudi and REH cancer cells.

human CD22 [2] = biological target: T1, human CD22; assay: as above; remark: listed apart in the source
Procedure: as §1
(§2) In general, the site-specific conjugated hLL2-IgG4p ADCs retained antigen reactivity of antibody.

human CD22 [3] = biological target: T1, human CD22; assay: flow cytometry, REH cells, unconjugated Ab 3.3 µg/mL
Procedure: as §1, §2

human CD22 [4] = biological target: T1, human CD22; assay: cell-based or functional assay
human CD22 [5] = biological target: T1, human CD22; assay: flow cytometry, REH cells, Tap18Hr1 conjugate 3.3 µg/mL
Procedure: as §1, §2

human CD22 [6] = biological target: T1, human CD22; assay: flow cytometry, Daudi cells, Tap18Hr1 conjugate 3.3 µg/mL
Procedure: as §1, §2

- MFI (human CD22 [1]): 1300
B1: hLL2-S157C-IgG1 (antibody)
heavy: not shown
light: DIQLTQSPSSLSASVGDRVTMSCKSSQSVLYSANHKNYLAWYQQKPGKAPKLLIYWASTRESGVPSRFSGSGSGTDFTFTISSLQPEDIATYYCHQYLSSWTFGGGTKLEIKRTVAAPSVFIFPPSDEQLKSGTASVVCLLNNFYPREAKVQWKVDNALQSGNSQESVTEQDSKDSTYSLSSTLTLSKADYEKHKVYACEVTHQGLSSPVTKSFNRGEC
notes: Position is EU numbering

- MFI (human CD22 [2]): 792
- MFI (human CD22 [3]): 81
B2: hLL2-IgG4p (antibody)
heavy: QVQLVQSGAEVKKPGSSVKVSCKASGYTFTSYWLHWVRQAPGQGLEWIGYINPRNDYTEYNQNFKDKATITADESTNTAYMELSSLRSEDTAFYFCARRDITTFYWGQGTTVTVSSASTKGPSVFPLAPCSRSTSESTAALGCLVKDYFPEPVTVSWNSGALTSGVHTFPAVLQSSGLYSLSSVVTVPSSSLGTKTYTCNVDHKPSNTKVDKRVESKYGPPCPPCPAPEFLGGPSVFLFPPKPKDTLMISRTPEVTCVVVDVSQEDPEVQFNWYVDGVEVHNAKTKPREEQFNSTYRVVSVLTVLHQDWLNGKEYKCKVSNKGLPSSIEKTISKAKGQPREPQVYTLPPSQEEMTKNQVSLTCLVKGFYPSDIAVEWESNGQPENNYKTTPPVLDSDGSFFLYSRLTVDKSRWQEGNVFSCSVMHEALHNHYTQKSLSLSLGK
light: DIQLTQSPSSLSASVGDRVTMSCKSSQSVLYSANHKNYLAWYQQKPGKAPKLLIYWASTRESGVPSRFSGSGSGTDFTFTISSLQPEDIATYYCHQYLSSWTFGGGTKLEIKRTVAAPSVFIFPPSDEQLKSGTASVVCLLNNFYPREAKVQWKVDNALQSGNSQESVTEQDSKDSTYSLSSTLTLSKADYEKHKVYACEVTHQGLSSPVTKSFNRGEC
notes: also called hLL2-IgG4p Ab

- MFI (human CD22 [1]): 1440
- MFI (human CD22 [2]): 1390
- MFI (human CD22 [3]): 139
B3: hLL2-IgG1 (antibody)
heavy: not shown
light: DIQLTQSPSSLSASVGDRVTMSCKSSQSVLYSANHKNYLAWYQQKPGKAPKLLIYWASTRESGVPSRFSGSGSGTDFTFTISSLQPEDIATYYCHQYLSSWTFGGGTKLEIKRTVAAPSVFIFPPSDEQLKSGTASVVCLLNNFYPREAKVQWKVDNALQSGNSQESVTEQDSKDSTYSLSSTLTLSKADYEKHKVYACEVTHQGLSSPVTKSFNRGEC
notes: also called hLL2-IgG1 Ab; hLL2-wild type antibody

- MFI (human CD22 [5]): 66
- MFI (human CD22 [6]): 515
B4: hLL2-T155C-IgG4p-Tap18Hr1 (antibody, name in EU numbering)
heavy: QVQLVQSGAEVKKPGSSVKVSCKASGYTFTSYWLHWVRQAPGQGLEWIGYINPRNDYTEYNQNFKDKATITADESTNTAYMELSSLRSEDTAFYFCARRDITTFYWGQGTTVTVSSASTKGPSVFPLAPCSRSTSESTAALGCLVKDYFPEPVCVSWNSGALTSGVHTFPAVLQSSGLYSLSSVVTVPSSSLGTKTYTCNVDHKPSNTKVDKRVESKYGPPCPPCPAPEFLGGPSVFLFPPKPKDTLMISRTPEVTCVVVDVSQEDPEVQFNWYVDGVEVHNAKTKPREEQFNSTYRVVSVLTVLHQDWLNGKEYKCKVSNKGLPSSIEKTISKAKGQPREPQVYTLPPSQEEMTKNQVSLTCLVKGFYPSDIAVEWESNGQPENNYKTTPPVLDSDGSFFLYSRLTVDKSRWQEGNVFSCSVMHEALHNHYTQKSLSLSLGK
light: DIQLTQSPSSLSASVGDRVTMSCKSSQSVLYSANHKNYLAWYQQKPGKAPKLLIYWASTRESGVPSRFSGSGSGTDFTFTISSLQPEDIATYYCHQYLSSWTFGGGTKLEIKRTVAAPSVFIFPPSDEQLKSGTASVVCLLNNFYPREAKVQWKVDNALQSGNSQESVTEQDSKDSTYSLSSTLTLSKADYEKHKVYACEVTHQGLSSPVTKSFNRGEC
modifications: Tap18Hr1 linker-drug (monomethyl dolastatin 10) on the introduced Cys 155 (EU numbering); site-specific conjugation, DAR 1.58-2.01
notes: also called hLL2-T155C-IgG4p Tap18Hr1 conjugate
- % inhibition, WST-1 cytotoxicity, Daudi cells, 1.1 µg/mL (human CD22 [4]): 66.2%
- % inhibition, WST-1 cytotoxicity, Daudi cells, 3.3 µg/mL (human CD22 [4]): 70.2%
- % inhibition, WST-1 cytotoxicity, NALM-6 cells, 10 ug/ml (human CD22 [4]): 45.3%
- % inhibition, WST-1 cytotoxicity, REH cells, 10 ug/ml (human CD22 [4]): 22.4%
- % inhibition, WST-1 cytotoxicity, Ramos cells, 1.1 µg/mL (human CD22 [4]): 89.4%
- % inhibition, WST-1 cytotoxicity, Ramos cells, 3.3 µg/mL (human CD22 [4]): 94.9%

- MFI (human CD22 [2]): 601
- MFI (human CD22 [3]): 79
B5: hLL2-T155C-IgG4p (antibody, name in EU numbering)
heavy: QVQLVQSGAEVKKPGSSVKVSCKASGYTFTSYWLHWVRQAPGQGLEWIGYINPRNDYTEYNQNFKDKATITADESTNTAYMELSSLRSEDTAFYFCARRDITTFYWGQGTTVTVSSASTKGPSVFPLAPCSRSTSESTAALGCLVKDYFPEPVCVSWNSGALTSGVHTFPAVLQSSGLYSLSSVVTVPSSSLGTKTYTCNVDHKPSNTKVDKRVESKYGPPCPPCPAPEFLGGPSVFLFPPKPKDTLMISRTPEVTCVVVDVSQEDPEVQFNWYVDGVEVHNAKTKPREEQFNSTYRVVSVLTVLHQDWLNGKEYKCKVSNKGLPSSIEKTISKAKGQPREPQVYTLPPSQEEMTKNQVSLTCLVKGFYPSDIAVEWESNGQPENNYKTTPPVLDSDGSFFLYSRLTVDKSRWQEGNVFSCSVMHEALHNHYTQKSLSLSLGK
light: DIQLTQSPSSLSASVGDRVTMSCKSSQSVLYSANHKNYLAWYQQKPGKAPKLLIYWASTRESGVPSRFSGSGSGTDFTFTISSLQPEDIATYYCHQYLSSWTFGGGTKLEIKRTVAAPSVFIFPPSDEQLKSGTASVVCLLNNFYPREAKVQWKVDNALQSGNSQESVTEQDSKDSTYSLSSTLTLSKADYEKHKVYACEVTHQGLSSPVTKSFNRGEC
notes: Position is EU numbering

- MFI (human CD22 [1]): 1310
B6: hLL2-S165C-IgG1 (antibody)
heavy: not shown
light: DIQLTQSPSSLSASVGDRVTMSCKSSQSVLYSANHKNYLAWYQQKPGKAPKLLIYWASTRESGVPSRFSGSGSGTDFTFTISSLQPEDIATYYCHQYLSSWTFGGGTKLEIKRTVAAPSVFIFPPSDEQLKSGTASVVCLLNNFYPREAKVQWKVDNALQSGNSQESVTEQDSKDSTYSLSSTLTLSKADYEKHKVYACEVTHQGLSSPVTKSFNRGEC
notes: Position is EU numbering

- MFI (human CD22 [5]): 60
- MFI (human CD22 [6]): 625
B7: hLL2-T169C-IgG4p-Tap18Hr1 (antibody, name in EU numbering)
heavy: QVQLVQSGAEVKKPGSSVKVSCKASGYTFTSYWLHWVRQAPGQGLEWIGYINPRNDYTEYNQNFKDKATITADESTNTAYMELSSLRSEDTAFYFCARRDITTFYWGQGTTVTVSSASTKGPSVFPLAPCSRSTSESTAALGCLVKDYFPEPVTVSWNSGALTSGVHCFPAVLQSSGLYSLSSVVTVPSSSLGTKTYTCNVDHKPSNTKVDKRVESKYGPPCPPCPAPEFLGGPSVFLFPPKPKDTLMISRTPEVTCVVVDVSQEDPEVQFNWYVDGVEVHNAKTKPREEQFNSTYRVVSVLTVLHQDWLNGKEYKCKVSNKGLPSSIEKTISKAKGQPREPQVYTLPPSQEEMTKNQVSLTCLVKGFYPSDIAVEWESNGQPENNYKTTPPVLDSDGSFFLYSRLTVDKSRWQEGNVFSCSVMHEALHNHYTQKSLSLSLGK
light: DIQLTQSPSSLSASVGDRVTMSCKSSQSVLYSANHKNYLAWYQQKPGKAPKLLIYWASTRESGVPSRFSGSGSGTDFTFTISSLQPEDIATYYCHQYLSSWTFGGGTKLEIKRTVAAPSVFIFPPSDEQLKSGTASVVCLLNNFYPREAKVQWKVDNALQSGNSQESVTEQDSKDSTYSLSSTLTLSKADYEKHKVYACEVTHQGLSSPVTKSFNRGEC
modifications: Tap18Hr1 linker-drug (monomethyl dolastatin 10) on the introduced Cys 169 (EU numbering); site-specific conjugation, DAR 1.58-2.01
notes: also called hLL2-T169C-IgG4p Tap18Hr1 conjugate
- % inhibition, WST-1 cytotoxicity, Daudi cells, 1.1 µg/mL (human CD22 [4]): 67.2%
- % inhibition, WST-1 cytotoxicity, Daudi cells, 3.3 µg/mL (human CD22 [4]): 70.8%
- % inhibition, WST-1 cytotoxicity, NALM-6 cells, 10 ug/ml (human CD22 [4]): 68.2%
- % inhibition, WST-1 cytotoxicity, REH cells, 10 ug/ml (human CD22 [4]): 42.6%
- % inhibition, WST-1 cytotoxicity, Ramos cells, 1.1 µg/mL (human CD22 [4]): 89.6%
- % inhibition, WST-1 cytotoxicity, Ramos cells, 3.3 µg/mL (human CD22 [4]): 93.3%

- MFI (human CD22 [1]): 1150
B8: hLL2-S442C-IgG1 (antibody)
heavy: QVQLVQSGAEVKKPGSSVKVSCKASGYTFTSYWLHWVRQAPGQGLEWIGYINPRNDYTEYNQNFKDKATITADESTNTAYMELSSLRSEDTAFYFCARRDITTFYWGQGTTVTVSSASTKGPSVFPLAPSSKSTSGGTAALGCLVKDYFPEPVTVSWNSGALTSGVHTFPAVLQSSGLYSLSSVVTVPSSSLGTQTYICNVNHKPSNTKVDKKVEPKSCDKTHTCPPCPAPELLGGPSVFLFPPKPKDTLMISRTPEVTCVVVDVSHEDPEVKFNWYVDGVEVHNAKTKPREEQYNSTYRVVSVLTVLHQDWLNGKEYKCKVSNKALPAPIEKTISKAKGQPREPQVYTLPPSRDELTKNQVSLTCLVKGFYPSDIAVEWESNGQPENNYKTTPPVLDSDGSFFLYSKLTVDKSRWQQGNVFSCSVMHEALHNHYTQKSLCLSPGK
light: DIQLTQSPSSLSASVGDRVTMSCKSSQSVLYSANHKNYLAWYQQKPGKAPKLLIYWASTRESGVPSRFSGSGSGTDFTFTISSLQPEDIATYYCHQYLSSWTFGGGTKLEIKRTVAAPSVFIFPPSDEQLKSGTASVVCLLNNFYPREAKVQWKVDNALQSGNSQESVTEQDSKDSTYSLSSTLTLSKADYEKHKVYACEVTHQGLSSPVTKSFNRGEC
notes: Position is EU numbering
